Each block holds one binder with its values, some of them ahead of it.
Key:
[1] = target: T1, soluble human Fas ligand (FasL) (human, UniProt P48023 103-281, limits assumed); test: single-dose SPR
T1 construct: also called sFasL; recombinant soluble FasL
T1 sequence: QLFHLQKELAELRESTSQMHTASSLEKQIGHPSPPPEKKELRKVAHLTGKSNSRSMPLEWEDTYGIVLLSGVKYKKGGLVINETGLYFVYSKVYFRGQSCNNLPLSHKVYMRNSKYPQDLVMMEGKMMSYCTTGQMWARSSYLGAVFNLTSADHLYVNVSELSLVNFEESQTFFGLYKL
Text: Several variants of the M3T01 antibody were isolated and tested for binding affinity to human FasL using a single-dose SPR affinity measurement. Each variant clone includes the same CDR sequences as M3T01 but includes one or more amino acid substitutions in the framework region (FR) of the VH domain and/or VL domain. The variant sequences, substitutions relative to the M3T01 VH and VL domains, and measured binding affinity are listed in Table 2. The binding affinities reported in Table 2 are from a single-dose SPR study.

[2] = target: T2, human FasL, cell surface (membrane-bound) (human, UniProt P48023 1-281); test: cell-based or functional assay
T2 sequence: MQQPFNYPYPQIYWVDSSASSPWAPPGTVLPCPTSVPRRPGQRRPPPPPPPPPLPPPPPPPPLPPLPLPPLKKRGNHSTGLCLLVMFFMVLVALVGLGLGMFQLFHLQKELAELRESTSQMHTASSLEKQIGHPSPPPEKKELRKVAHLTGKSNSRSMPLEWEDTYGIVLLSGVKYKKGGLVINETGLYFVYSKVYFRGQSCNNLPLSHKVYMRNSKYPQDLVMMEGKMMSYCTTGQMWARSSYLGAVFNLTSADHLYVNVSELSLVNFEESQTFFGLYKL

[3] = target: T1, soluble human Fas ligand (FasL); test: ELISA on soluble FasL
[4] = target: T1, soluble human Fas ligand (FasL); test: multi-dose SPR, BIACORE 8K; multi-dose SPR using BIACORE 8K
Protocol: (§1) Binding of M3T01 to human FasL was measured by multi-dose SPR using BIACORE™ 8K. […] In another study, binding of M3T01 to soluble FasL (sFasL) was measured by ELISA.

[5] = target: T3, rat FasL, cell surface (rat, UniProt P36940 1-278); test: flow cytometry, HEK293T cells transfected with rat FasL
T3 construct: Expressed on transfected HEK293T cells
T3 sequence: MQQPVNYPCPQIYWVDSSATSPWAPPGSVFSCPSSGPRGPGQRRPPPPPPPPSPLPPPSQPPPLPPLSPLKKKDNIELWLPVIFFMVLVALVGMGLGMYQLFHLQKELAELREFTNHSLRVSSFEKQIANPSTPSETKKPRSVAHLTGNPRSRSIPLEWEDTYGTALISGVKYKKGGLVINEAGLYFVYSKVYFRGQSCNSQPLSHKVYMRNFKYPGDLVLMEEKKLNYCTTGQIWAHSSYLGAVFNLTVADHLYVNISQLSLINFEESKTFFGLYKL
Protocol: (§2) FIG. 2B: Binding of M3T01 to cell surface FasL across multiple species (human, cynomolgus macaque, rat, and mouse). M3T01 staining of HEK293T cells transfected with vectors expressing FasL from various species was measured by flow cytometry.
(§3) Next, assays were performed to evaluate binding of M3T01 to cell-surface, membrane-bound FasL from a variety of different species. HEK293T cells were transfected with vectors expressing either mouse, human, rat or cynomolgus macaque FasL and binding by M3T01 was measured by flow cytometry.

[6] = target: T4, mouse FasL, cell surface (mouse, UniProt P41047 1-279); test: flow cytometry, HEK293T cells transfected with mouse FasL
T4 construct: Expressed on transfected HEK293T cells
T4 sequence: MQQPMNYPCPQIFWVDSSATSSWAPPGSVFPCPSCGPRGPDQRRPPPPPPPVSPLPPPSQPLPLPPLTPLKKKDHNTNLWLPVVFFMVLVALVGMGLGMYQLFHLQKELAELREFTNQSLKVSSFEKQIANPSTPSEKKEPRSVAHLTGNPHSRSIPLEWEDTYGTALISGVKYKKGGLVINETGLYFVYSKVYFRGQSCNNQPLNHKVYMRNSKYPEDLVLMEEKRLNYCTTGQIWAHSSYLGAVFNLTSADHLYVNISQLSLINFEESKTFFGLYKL
Protocol: as §2, §3

[7] = target: T5, cynomolgus macaque FasL, cell surface (cynomolgus macaque, UniProt P63308 1-280); test: flow cytometry, HEK293T cells transfected with cynomolgus macaque FasL
T5 construct: Expressed on transfected HEK293T cells
T5 sequence: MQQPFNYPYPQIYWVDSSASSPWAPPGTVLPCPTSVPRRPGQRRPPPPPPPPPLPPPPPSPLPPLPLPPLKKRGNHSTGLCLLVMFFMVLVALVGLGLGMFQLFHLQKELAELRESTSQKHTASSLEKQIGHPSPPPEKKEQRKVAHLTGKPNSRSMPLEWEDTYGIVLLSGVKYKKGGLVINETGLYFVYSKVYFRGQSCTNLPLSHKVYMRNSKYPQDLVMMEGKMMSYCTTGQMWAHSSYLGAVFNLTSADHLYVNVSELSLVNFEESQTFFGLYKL
Protocol: as §2, §3

[8] = target: T1, soluble human Fas ligand (FasL); test: SPR, BIACORE 8K, multi-dose; M3T01 in column 'Ligand', Recombinant Human Fas Ligand in column 'Analyte'
Protocol: as §1

B1: M3T01 (antibody, V domains shown)
VH: QVQLVESGGGVVQPGRSLRLSCAASGFTFSTYGIHWVRQAPGKGLEWVAVIWYDGSDKFYADSVKGRFTISRDNSKNTLYLQMNSLRAEDTAVYYCARDRDNWNYFDYWGQGTLVTVSS
VL: DIQMTQSPSTLSASVGDRVTITCRASQSISSWLAWYQQKPGKAPKFLIYQASSLESGVPSRFSGSGSGTEFTLTISSLQPDDFATYYCQQYNSYITFGQGTRLEIKR
notes: Fully human IgG4/kappa with S228P; also called M27.2
- Kd [1]: 3.2 nM
- inhibition of FasL-mediated apoptosis of Jurkat cells (annexin-V externalization, flow cytometry), IC50 [2]: 0.33 nM
- inhibition of FasL-mediated apoptosis of Jurkat cells, potency relative to sCD95-Fc [2]: 310 fold
- EC50 (read off the curve) [3]: ~0.02 nM
- Kd [4]: 0.974 nM
- binding result [5]: binds
- binding result [6]: binds
- binding result [7]: binds
- koff [8]: 0.000235 s⁻¹
- kon [8]: 242000 M⁻¹ s⁻¹

B2: M27.3 (antibody, V domains shown)
VH: QVQLVESGGGVVQPGRSLRLSCAASGFTFSTYGIHWVRQAPGKGLEWVAVIWYDGSDKFYADSVKGRFTISRDNSKDTLYLEMNSLRAEDTAMYYCARDRDNWNYFDYWGQGTLVTVSS
VL: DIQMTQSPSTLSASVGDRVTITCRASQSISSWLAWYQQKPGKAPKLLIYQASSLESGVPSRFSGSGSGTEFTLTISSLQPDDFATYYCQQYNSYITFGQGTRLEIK
notes: Variant clone of M3T01 with the same CDRs
- Kd [1]: 1.96 nM

B4: M27.5 (antibody, V domains shown)
VH: QVQLVESGGGVVQPGRSLRLSCAASGFTFSTYGIHWVRQAPGKGLEWVAVIWYDGSDKFYADSVKGRFTISRDNSKDTLYLQMNSLRAEDTAMYYCARDRDNWNYFDYWGQGTLVTVSS
VL: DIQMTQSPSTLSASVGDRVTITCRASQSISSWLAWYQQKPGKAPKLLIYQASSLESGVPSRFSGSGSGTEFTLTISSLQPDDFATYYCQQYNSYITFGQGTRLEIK
notes: as for B2
- Kd [1]: 3.44 nM

B5: M27.4 (antibody, V domains shown)
VH: QVQLVESGGGVVQPGRSLRLSCAASGFTFSTYGIHWVRQAPGKGLEWVAVIWYDGSDKFYADSVKGRFTISRDNSKNTLYLQMNSLRAEDTAVYYCARDRDNWNYFDYWGQGTLVTVSS
VL: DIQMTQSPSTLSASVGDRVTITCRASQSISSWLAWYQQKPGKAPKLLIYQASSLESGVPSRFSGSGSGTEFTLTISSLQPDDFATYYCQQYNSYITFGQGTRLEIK
notes: as for B2
- Kd [1]: 3.1 nM

More lines, in order of falling Kd [1], values ahead:

- Kd [1]: 2.12 nM
B6: M27.6 (antibody, V domains shown)
VH: QVQLVESGGGVVQPGRSLRLSCAASGFTFSTYGIHWVRQAPGKGLEWVAVIWYDGSDKFYADSVKGRFTISRDNSKDTLYLEMNSLRAEDTAVYYCARDRDNWNYFDYWGQGTLVTVSS
VL: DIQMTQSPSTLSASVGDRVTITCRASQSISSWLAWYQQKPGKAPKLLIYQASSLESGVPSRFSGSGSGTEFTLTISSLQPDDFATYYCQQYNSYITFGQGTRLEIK
notes: as for B2

- Kd [1]: 1.36 nM
B3: M27.1 (antibody, V domains shown)
VH: QVQLVESGGGVVQPGRSLRLSCAASGFTFSTYGIHWVRQAPGKGLEWVAVIWYDGSDKFYADSVKGRFTISRDNSKDTLYLEMNSLRAEDTAMYYCARDRDNWNYFDYWGQGTLVTVSS
VL: DIQMTQSPSTLSASVGDRVTITCRASQSISSWLAWYQQKPGKAPKFLIYQASSLESGVPSRFSGSGSGTEFTLTISSLQPDDFATYYCQQYNSYITFGQGTRLEIK
notes: as for B2
